Data: article PMC10333884, “Large‐scale phosphomimetic screening identifies phospho‐modulated motif‐based protein interactions” (Molecular Systems Biology, 2023)
One block for each substance: values may come before it.

Columns and labels:
MAP1LC3B (human) = MAP1LC3B (human) (UniProt Q9GZQ8); experiment: fluorescence polarisation; displacement of a FITC-labelled probe peptide (5 nM in the measurement) from the protein domain (1-2 fold over the probe's KD) by a dilution series of unlabelled peptide; room temperature; 50 mM sodium phosphate pH 7.4; KD calculated from the displacement curve; for KPNA4 ARM one probe for each pocket
GABARAPL2 (human) = GABARAPL2 (human) (UniProt P60520); experiment: fluorescence polarisation
AP2 μ2 (human) = experiment: fluorescence polarisation; displacement of a FITC-labelled probe peptide (5 nM in the measurement) from the protein domain (1-2 fold over the probe's KD) by a dilution series of unlabelled peptide; room temperature; 50 mM sodium phosphate pH 7.4; KD calculated from the displacement curve; for KPNA4 ARM one probe for each pocket
KPNA4 ARM ARM domain = KPNA4 ARM ARM domain (UniProt O00629); experiment: FP displacement, major-pocket FITC probe; conditions: reference: unphosphorylated peptide
KPNA4 ARM (human) = experiment: fluorescence polarisation; displacement of a FITC-labelled probe peptide (5 nM in the measurement) from the protein domain (1-2 fold over the probe's KD) by a dilution series of unlabelled peptide; room temperature; 50 mM sodium phosphate pH 7.4; KD calculated from the displacement curve; for KPNA4 ARM one probe for each pocket
SNX27 PDZ (human) = SNX27 PDZ (human) (UniProt Q96L92); experiment: as above
RANBP2 RanBD4 (human) = experiment: as above
[1] = molecular target: PDCD6IP Alix V domain (human); experiment: as above
TSG101 UEV (human) = TSG101 UEV (human) (UniProt Q99816); experiment: as above
[2] = molecular target: Clathrin N-terminal domain (NTD) (human) (UniProt Q00610); experiment: as above
GGA1 VHS (human) = GGA1 VHS (human) (UniProt Q9UJY5); experiment: as above
Chain of GGA1 VHS (human) (Q9UJY5 17-147): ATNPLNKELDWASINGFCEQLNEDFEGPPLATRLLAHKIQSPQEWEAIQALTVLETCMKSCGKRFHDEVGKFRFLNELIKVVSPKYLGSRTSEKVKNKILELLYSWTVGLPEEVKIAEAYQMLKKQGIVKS

Chain of GABARAPL2 (human) (P60520 whole entry, the tested form may be a part): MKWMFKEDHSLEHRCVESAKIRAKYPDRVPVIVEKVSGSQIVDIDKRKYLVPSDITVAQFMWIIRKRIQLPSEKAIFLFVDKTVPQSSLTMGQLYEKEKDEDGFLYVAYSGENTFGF
Chain of TSG101 UEV (human) (Q99816 2-145): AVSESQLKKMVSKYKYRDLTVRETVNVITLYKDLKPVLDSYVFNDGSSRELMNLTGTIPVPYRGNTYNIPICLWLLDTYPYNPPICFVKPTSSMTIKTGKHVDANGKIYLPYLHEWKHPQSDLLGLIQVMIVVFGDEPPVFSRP
Chain of Clathrin N-terminal domain (NTD) (human) (Q00610 1-364): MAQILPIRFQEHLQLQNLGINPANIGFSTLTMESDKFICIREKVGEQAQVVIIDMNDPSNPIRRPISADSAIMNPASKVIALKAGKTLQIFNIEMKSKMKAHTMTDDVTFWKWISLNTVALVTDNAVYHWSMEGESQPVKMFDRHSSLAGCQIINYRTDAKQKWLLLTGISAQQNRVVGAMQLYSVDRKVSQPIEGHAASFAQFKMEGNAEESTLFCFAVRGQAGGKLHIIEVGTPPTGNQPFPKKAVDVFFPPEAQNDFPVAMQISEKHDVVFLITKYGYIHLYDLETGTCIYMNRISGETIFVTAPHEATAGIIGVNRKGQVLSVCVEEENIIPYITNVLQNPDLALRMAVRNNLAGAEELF
Chain of DAXX_(606–616), wild‐type (Q9UER7 whole entry, looked up, tested part not stated): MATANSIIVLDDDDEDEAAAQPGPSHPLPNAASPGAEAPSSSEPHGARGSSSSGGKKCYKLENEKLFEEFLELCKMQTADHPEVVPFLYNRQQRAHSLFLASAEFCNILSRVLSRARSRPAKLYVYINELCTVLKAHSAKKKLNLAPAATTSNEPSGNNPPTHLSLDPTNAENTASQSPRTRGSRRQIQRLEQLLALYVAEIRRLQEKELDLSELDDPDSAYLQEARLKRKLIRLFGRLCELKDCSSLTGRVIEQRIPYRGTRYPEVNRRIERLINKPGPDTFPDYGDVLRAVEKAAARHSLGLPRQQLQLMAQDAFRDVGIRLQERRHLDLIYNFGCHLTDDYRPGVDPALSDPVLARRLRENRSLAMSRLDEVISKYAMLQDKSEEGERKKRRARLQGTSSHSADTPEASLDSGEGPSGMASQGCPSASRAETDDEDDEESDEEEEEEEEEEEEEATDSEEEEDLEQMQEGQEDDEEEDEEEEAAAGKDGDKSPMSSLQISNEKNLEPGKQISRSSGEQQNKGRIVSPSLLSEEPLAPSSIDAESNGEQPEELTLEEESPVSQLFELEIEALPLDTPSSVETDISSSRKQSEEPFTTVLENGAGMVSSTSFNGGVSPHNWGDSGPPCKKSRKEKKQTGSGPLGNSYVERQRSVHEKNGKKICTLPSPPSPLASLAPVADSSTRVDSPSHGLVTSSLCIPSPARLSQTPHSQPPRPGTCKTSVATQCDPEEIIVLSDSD
Chain of DAXX_(606–616), phosphorylated (pS) (Q9UER7 whole entry, looked up, tested part not stated): as above
Chain of DAXX_(606–616), phosphomimetic (E) (Q9UER7 whole entry, looked up, tested part not stated): as above

Kd (MAP1LC3B (human)): 1.9 µM
Kd (GABARAPL2 (human)): 0.1 µM
Substance: ATG4C_(444–458), phosphorylated (pS) (from UniProt Q96DT6 444-458) (peptide)

Kd (AP2 μ2 (human)): 0.49 µM
Substance: BAIAPL1_(392–407), phosphomimetic (E) (from UniProt Q9UHR4 392-407) (peptide)

Kd (AP2 μ2 (human)): 0.93 µM
Substance: BAIAPL1_(392–407), phosphorylated (pS) (from UniProt Q9UHR4 392-407) (peptide)

Kd (AP2 μ2 (human)): 1.29 µM
Substance: BAIAPL1_(392–407), wild‐type (from UniProt Q9UHR4 392-407) (peptide)

KD (KPNA4 ARM ARM domain; sites S116): stronger; reference 8.8 ± 0.2
Substance: CDC25A 114-125 (from UniProt P30304) pS116 peptide

KD, major pocket (KPNA4 ARM (human)): 0.75 µM
KD, minor pocket (KPNA4 ARM (human)): 2.3 µM
Substance: CDC25A_(114–125), phosphomimetic (E) (from UniProt P30304 114-125) (peptide)

KD, major pocket (KPNA4 ARM (human)): 8.8 µM
KD, minor pocket (KPNA4 ARM (human)): 0.2 µM
Substance: CDC25A_(114–125), wild‐type (from UniProt P30304 114-125) (peptide)

Kd (SNX27 PDZ (human)): 680 µM
Substance: CDC25C_(30–44), phosphomimetic (E) (from UniProt P30307 30-44) (peptide)

Kd (SNX27 PDZ (human)): 395 µM
Substance: CDC25C_(30–44), phosphorylated (pS) (from UniProt P30307 30-44) (peptide)

Kd (SNX27 PDZ (human)): 111 µM
Substance: CDC25C_(30–44), wild‐type (from UniProt P30307 30-44) (peptide)

Kd (SNX27 PDZ (human)): 23 µM
Substance: DAXX_(606–616), phosphomimetic (E) (from UniProt Q9UER7 606-616) (peptide)

Kd (SNX27 PDZ (human)): 96 µM
Substance: DAXX_(606–616), phosphorylated (pS) (from UniProt Q9UER7 606-616) (peptide)

Kd (SNX27 PDZ (human)): 300 µM
Substance: DAXX_(606–616), wild‐type (from UniProt Q9UER7 606-616) (peptide)

Kd (RANBP2 RanBD4 (human)): 167 µM
Substance: DHX38_(260–275), phosphorylated (pS) (from UniProt Q92620 260-275) (peptide)

Kd (RANBP2 RanBD4 (human)): 1500 µM
Substance: DHX38_(260–275), wild‐type (from UniProt Q92620 260-275) (peptide)

Kd (GABARAPL2 (human)): 260 µM
Substance: DLGAP4_(907–922), phosphomimetic (E) (from UniProt Q9Y2H0 907-922) (peptide)

Kd (GABARAPL2 (human)): 150 µM
Substance: DLGAP4_(907–922), phosphorylated (pS) (from UniProt Q9Y2H0 907-922) (peptide)

Kd (GABARAPL2 (human)): 174 µM
Substance: DLGAP4_(907–922), wild‐type (from UniProt Q9Y2H0 907-922) (peptide)

Kd [1]: 13 µM
Substance: FOXK1_(212–227), phosphomimetic (E) (from UniProt P85037 212-227) (peptide)

Kd [1]: 13 µM
Substance: FOXK1_(212–227), phosphorylated (pS) (from UniProt P85037 212-227) (peptide)

Kd [1]: 25 µM
Substance: FOXK1_(212–227), wild‐type (from UniProt P85037 212-227) (peptide)

Kd (TSG101 UEV (human)): 115 µM
Substance: GJA1_(269–283), phosphomimetic (E) (from UniProt P17302 269-283) (peptide)

Kd (TSG101 UEV (human)): 209 µM
Substance: GJA1_(269–283), phosphorylated (pS) (from UniProt P17302 269-283) (peptide)

Kd (TSG101 UEV (human)): 232 µM
Substance: GJA1_(269–283), wild‐type (from UniProt P17302 269-283) (peptide)

Kd [2]: 100 µM
Substance: GTSE1_(692–707) peptide, unphosphorylated

Kd (RANBP2 RanBD4 (human)): 1080 µM
Substance: INTS6_(145–159), phosphomimetic (E) (from UniProt Q9UL03 145-159) (peptide)

Kd (RANBP2 RanBD4 (human)): 733 µM
Substance: INTS6_(145–159), phosphorylated (pS) (from UniProt Q9UL03 145-159) (peptide)

Kd (RANBP2 RanBD4 (human)): 334 µM
Substance: INTS6_(145–159), wild‐type (from UniProt Q9UL03 145-159) (peptide)

Kd (GGA1 VHS (human)): 1900 µM
Substance: JUN_(59–73), phosphorylated (pS) (from UniProt P05412 59-73) (peptide)

Kd (GGA1 VHS (human)): 470 µM
Substance: JUN_(59–73), wild‐type (from UniProt P05412 59-73) (peptide)

Kd [1]: 88 µM
Substance: OTUD5_(507–522), phosphomimetic (E) (from UniProt Q96G74 507-522) (peptide)

Kd [1]: 116 µM
Substance: OTUD5_(507–522), phosphorylated (pS) (from UniProt Q96G74 507-522) (peptide)

Kd [1]: 68 µM
Substance: OTUD5_(507–522), wild‐type (from UniProt Q96G74 507-522) (peptide)

Kd (AP2 μ2 (human)): 2.05 µM
Substance: PCBP1_(179–194), phosphomimetic (E) (from UniProt Q15365 179-194) (peptide)

Kd (AP2 μ2 (human)): 0.67 µM
Substance: PCBP1_(179–194), phosphorylated (pS) (from UniProt Q15365 179-194) (peptide)

Kd (AP2 μ2 (human)): 3.7 µM
Substance: PCBP1_(179–194), wild‐type (from UniProt Q15365 179-194) (peptide)

Kd (TSG101 UEV (human)): 16 µM
Substance: PDCD6IP_(711–725), wild‐type (from UniProt Q8WUM4 711-725) (peptide)

Kd (TSG101 UEV (human)): 18 µM
Substance: PIP4P2_(17–32), phosphomimetic (E) (from UniProt Q8N4L2 17-32) (peptide)

Kd (TSG101 UEV (human)): 16 µM
Substance: PIP4P2_(17–32), phosphorylated (pS) (from UniProt Q8N4L2 17-32) (peptide)

Kd (TSG101 UEV (human)): 14 µM
Substance: PIP4P2_(17–32), wild‐type (from UniProt Q8N4L2 17-32) (peptide)

KD (KPNA4 ARM ARM domain; sites T124): weaker; reference 0.15 ± 0.01
Substance: RANBP3 114-129 (from UniProt Q9H6Z4) pT124 peptide (p+5)

KD, major pocket (KPNA4 ARM (human)): 0.8 µM
KD, minor pocket (KPNA4 ARM (human)): 61 µM
Substance: RANBP3_(114–129), phosphomimetic (E) at p + 5 (from UniProt Q9H6Z4 114-129) (peptide)

KD, major pocket (KPNA4 ARM (human)): 0.14 µM
KD, minor pocket (KPNA4 ARM (human)): 80 µM
Substance: RANBP3_(114–129), phosphomimetic (E) at p + 6 (from UniProt Q9H6Z4 114-129) (peptide)

KD, major pocket (KPNA4 ARM (human)): 1.13 µM
KD, minor pocket (KPNA4 ARM (human)): 167 µM
Substance: RANBP3_(114–129), phosphorylated at p + 5 (from UniProt Q9H6Z4 114-129) (peptide)

KD, major pocket (KPNA4 ARM (human)): 0.22 µM
KD, minor pocket (KPNA4 ARM (human)): 20 µM
Substance: RANBP3_(114–129), phosphorylated at p + 6 (from UniProt Q9H6Z4 114-129) (peptide)

KD, major pocket (KPNA4 ARM (human)): 0.15 µM
KD, minor pocket (KPNA4 ARM (human)): 68 µM
Substance: RANBP3_(114–129), wild‐type (from UniProt Q9H6Z4 114-129) (peptide)

Kd (GGA1 VHS (human)): 1000 µM
Substance: RNF11_(6–21), phosphomimetic (E) (from UniProt Q9Y3C5 6-21) (peptide)

Kd (GGA1 VHS (human)): 31 µM
Substance: RNF11_(6–21), phosphorylated (pS) (from UniProt Q9Y3C5 6-21) (peptide)

Kd (GGA1 VHS (human)): 420 µM
Substance: RNF11_(6–21), wild‐type (from UniProt Q9Y3C5 6-21) (peptide)

KD, major pocket (KPNA4 ARM (human)): 5.3 µM
KD, minor pocket (KPNA4 ARM (human)): 41 µM
Substance: SQSTM1_(258–272), phosphomimetic (E) (from UniProt Q13501 258-272) (peptide)

KD, major pocket (KPNA4 ARM (human)): 50 µM
KD, minor pocket (KPNA4 ARM (human)): 248 µM
Substance: SQSTM1_(258–272), phosphorylated (pS) (from UniProt Q13501 258-272) (peptide)

KD, major pocket (KPNA4 ARM (human)): 0.24 µM
KD, minor pocket (KPNA4 ARM (human)): 14 µM
Substance: SQSTM1_(258–272), wild‐type (from UniProt Q13501 258-272) (peptide)

Kd (MAP1LC3B (human)): 61 µM
Substance: TPD52L2_(91–106), phosphorylated (pS) (from UniProt O43399 91-106) (peptide)

Kd (MAP1LC3B (human)): 760 µM
Substance: TPD52L2_(91–106), wild‐type (from UniProt O43399 91-106) (peptide)

KD, major pocket (KPNA4 ARM (human)): 0.63 µM
KD, minor pocket (KPNA4 ARM (human)): 2.8 µM
Substance: pS116 CDC25A_(114–125) (from UniProt P30304 114-125) (peptide)

Kd [2]: < 3 µM
Substance: pS839 HURP_(826–846) peptide (from UniProt Q15398 826-846)
